Laboratory results: paper PMC4456664 (2015)

Biological target: BSA (Bos taurus, UniProt P02769)
Test: ITC

Chain of BSA (P02769 25-607): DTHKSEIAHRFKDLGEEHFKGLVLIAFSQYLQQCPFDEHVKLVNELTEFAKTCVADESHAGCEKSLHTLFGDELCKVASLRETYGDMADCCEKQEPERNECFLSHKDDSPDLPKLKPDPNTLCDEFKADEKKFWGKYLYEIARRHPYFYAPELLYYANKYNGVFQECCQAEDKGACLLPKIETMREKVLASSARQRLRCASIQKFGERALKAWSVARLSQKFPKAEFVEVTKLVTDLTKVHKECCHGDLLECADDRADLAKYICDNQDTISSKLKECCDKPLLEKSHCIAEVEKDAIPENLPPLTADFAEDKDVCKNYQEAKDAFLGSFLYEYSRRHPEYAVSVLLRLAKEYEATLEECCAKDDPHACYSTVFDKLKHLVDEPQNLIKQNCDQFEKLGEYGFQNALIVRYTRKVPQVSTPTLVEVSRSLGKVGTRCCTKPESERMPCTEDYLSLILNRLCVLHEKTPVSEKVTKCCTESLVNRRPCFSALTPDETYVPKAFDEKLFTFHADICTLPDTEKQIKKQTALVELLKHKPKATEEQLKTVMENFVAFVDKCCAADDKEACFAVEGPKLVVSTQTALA

Kd: 3000 nM
B1: PYL10 (protein)
chain: MNGDETKKVESEYIKKHHRHELVESQCSSTLVKHIKAPLHLVWSIVRRFDEPQKYKPFISRCVVQGKKLEVGSVREVDLKSGLPATKSTEVLEILDDNEHILGIRIVGGDHRLKNYSSTISLHSETIDGKTGTLAIESFVVDVPEGNTKEETCFFVEALIQCNLNSLADVTERLQAESMEKKI
